Measured values published in the supplement of paper PMC9233669.
Fewer inactive variants are shown than the library holds.

How the values were obtained:
[1] = system: biotinyl-Phe-oxazolone; experiment: self-aminoacylation, catalytic enhancement (BFO) (fold over background); higher = more active; k-Seq, kA / k0A0; sequences stand for … in GGGAAUGGAUCCACAUCUACGAAUUC…UUCACUGCAGACUUGACGAAGCUG
Procedure, shortened: (§1)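 Catalytic enhancement equals the median kA over the uncatalyzed rate, the latter read from the low-activity peak of a bimodal Gaussian fit. Values of kA came from fitting each sequence's fraction reacted to a pseudo-first-order model, with 1000 bootstraps. Reacted RNA was captured with streptavidin and quantified by triplicate qPCR and Illumina sequencing after 90 minutes at room temperature with 2–1250 μM biotinyl-aminoacyl-oxazolone and 0.43 μM mutagenized RNA pools bearing a 21-nt variable region.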

[2] = system: biotinyl-Ile-oxazolone; experiment: self-aminoacylation, catalytic enhancement (BIO) (fold over background); higher = more active; k-Seq, kA / k0A0; sequences stand for … in GGGAAUGGAUCCACAUCUACGAAUUC…UUCACUGCAGACUUGACGAAGCUG
Procedure, shortened: as §1

[3] = system: biotinyl-Met-oxazolone; experiment: self-aminoacylation, catalytic enhancement (BMO) (fold over background); higher = more active; k-Seq, kA / k0A0; sequences stand for … in GGGAAUGGAUCCACAUCUACGAAUUC…UUCACUGCAGACUUGACGAAGCUG
Procedure, shortened: as §1

[4] = system: biotinyl-Val-oxazolone; experiment: self-aminoacylation, catalytic enhancement (BVO) (fold over background); higher = more active; k-Seq, kA / k0A0; sequences stand for … in GGGAAUGGAUCCACAUCUACGAAUUC…UUCACUGCAGACUUGACGAAGCUG
Procedure, shortened: as §1

[5] = system: biotinyl-Leu-oxazolone; experiment: self-aminoacylation, catalytic enhancement (BLO) (fold over background); higher = more active; k-Seq, kA / k0A0; sequences stand for … in GGGAAUGGAUCCACAUCUACGAAUUC…UUCACUGCAGACUUGACGAAGCUG
Procedure, shortened: as §1

[6] = system: biotinyl-Trp-oxazolone; experiment: self-aminoacylation, catalytic enhancement (BWO) (fold over background); higher = more active; k-Seq, kA / k0A0; sequences stand for … in GGGAAUGGAUCCACAUCUACGAAUUC…UUCACUGCAGACUUGACGAAGCUG
Procedure, shortened: as §1

| Sequence | self-aminoacylation [1] | self-aminoacylation [2] | self-aminoacylation [3] | self-aminoacylation [4] | self-aminoacylation [5] | self-aminoacylation [6] |
| --- | --- | --- | --- | --- | --- | --- |
| CCACACUUCUUGCAAUCGGUC [Fam1B.1 aminoacylation ribozyme variant] | 0.7 | 0.783 | 0.76 | 0.765 | 0.72 | 0.654 |
| CCACACUUGAAGCAACCGGUC [Fam1B.1 aminoacylation ribozyme variant] | 0.953 | 0.886 | 0.694 | 1.04 | 0.699 | 0.938 |
| CCACACUUGAAGCAAUAGGUC [Fam1B.1 aminoacylation ribozyme variant] | 0.578 | 0.563 | 0.509 | 0.513 | 0.471 | 0.438 |
| CCACACUUGAAGCAAUCGAUC [Fam1B.1 aminoacylation ribozyme variant] | 0.662 | 0.482 | 0.436 | 0.612 | 0.407 | 0.348 |
| CCACACUUGAAGCAAUCGGGC [Fam1B.1 aminoacylation ribozyme variant] | 5.71 | 1.55 | 1.34 | 2.63 | 1.57 | 2.26 |
| CCACACUUGAAGCAAUCGUUC [Fam1B.1 aminoacylation ribozyme variant] | 0.863 | 0.685 | 0.487 | 0.825 | 0.674 | 0.436 |
| CCACACUUGAAGCAAUUGGUC [Fam1B.1 aminoacylation ribozyme variant] | 0.359 | 0.643 | 0.63 | 0.587 | 0.539 | 0.386 |
| CCACACUUGAAGCGAUCGGUC [Fam1B.1 aminoacylation ribozyme variant] | 1.67 | 1.41 | 1.36 | 1.39 | 0.996 | 0.952 |
| CCACACUUGAAGGAAUCGGUC [Fam1B.1 aminoacylation ribozyme variant] | 1.23 | 1.28 | 1.39 | 1.39 | 1.55 | 1.71 |
| CCACACUUUAAGAAAUCGGUC [Fam1B.1 aminoacylation ribozyme variant] | 0.835 | 0.841 | 0.607 | 0.663 | 0.782 | 0.727 |
| CCACACUUUAAGCAAUCGCUC [Fam1B.1 aminoacylation ribozyme variant] | 0.598 | 0.99 | 1.1 | 1.08 | 0.897 | 1.2 |
| CCACACUUUAAGCAAUCGGAC [Fam1B.1 aminoacylation ribozyme variant] | 0.866 | 0.85 | 0.664 | 0.839 | 0.737 | 0.544 |
| CCACACUUUAAGCAAUCGGGC [Fam1B.1 aminoacylation ribozyme variant] | 1.22 | 1.61 | 1.63 | 1.34 | 1.65 | 1.01 |
| CCACACUUUAAGCAAUGGGUC [Fam1B.1 aminoacylation ribozyme variant] | 0.774 | 0.696 | 0.686 | 0.613 | 0.618 | 0.612 |
| CCACACUUUAAGCAUUCGGUC [Fam1B.1 aminoacylation ribozyme variant] | 1.05 | 1.39 | 1.01 | 1.3 | 1.21 | 1.36 |
| CCACACUUUCAGCAAUCGGUC [Fam1B.1 aminoacylation ribozyme variant] | 1.04 | 1.01 | 0.799 | 1.09 | 0.966 | 0.664 |
| CCACAGUUCAAGAAAUCGGUC [Fam1B.1 aminoacylation ribozyme variant] | 1.71 | 1.06 | 1.22 | 1.18 | 1.22 | 1.67 |
| CCACAGUUCAAGCAAUAGGUC [Fam1B.1 aminoacylation ribozyme variant] | 1.14 | 0.794 | 0.783 | 0.862 | 0.731 | 0.858 |
| CCACAGUUCAAGCAAUCAGUC [Fam1B.1 aminoacylation ribozyme variant] | 1.73 | 0.829 | 0.662 | 0.781 | 0.76 | 0.814 |
| CCACAGUUCAAGCAAUCGGUG [Fam1B.1 aminoacylation ribozyme variant] | 25.9 | 3.29 | 4.04 | 3.14 | 5.44 | 3.62 |
| CCACAGUUCAAGCCAUCGGUC [Fam1B.1 aminoacylation ribozyme variant] | 1.14 | 1.87 | 2.33 | 2.17 | 2.53 | 1.3 |
| CCACAGUUCAAUCAAUCGGUC [Fam1B.1 aminoacylation ribozyme variant] | 2.95 | 0.806 | 0.905 | 0.96 | 0.881 | 2.08 |
| CCACAUUUCAAACAAUCGGUC [Fam1B.1 aminoacylation ribozyme variant] | 17.8 | 1.41 | 1.33 | 1.28 | 1.31 | 9.95 |
| CCACAUUUCAAGCAAUCAGUC [Fam1B.1 aminoacylation ribozyme variant] | 1.71 | 1 | 0.755 | 1.1 | 0.906 | 0.884 |
| CCACAUUUCAAGCAAUCGCUC [Fam1B.1 aminoacylation ribozyme variant] | 2.39 | 2.6 | 2 | 2.42 | 2.17 | 2.38 |
| CCACAUUUCAAGCACUCGGUC [Fam1B.1 aminoacylation ribozyme variant] | 0.933 | 1.25 | 1.15 | 1.37 | 1.16 | 0.97 |

| Sequence | self-aminoacylation [1] | self-aminoacylation [2] | self-aminoacylation [3] | self-aminoacylation [4] | self-aminoacylation [5] | self-aminoacylation [6] |
| --- | --- | --- | --- | --- | --- | --- |
| CCACAUUUCAAGCAUUCGGUC [Fam1B.1 aminoacylation ribozyme variant] | 1.3 | 1.92 | 1.65 | 1.96 | 1.64 | 1.56 |
| CCACAUUUCAAGGAAUCGGUC [Fam1B.1 aminoacylation ribozyme variant] | 1.67 | 1.52 | 1.34 | 1.31 | 1.49 | 1.28 |
| CCACCCUUCAACCAAUCGGUC [Fam1B.1 aminoacylation ribozyme variant] | 46 | 1.19 | 1.35 | 1.47 | 1.44 | 26.2 |
| CCACCGUUCAAGCAAUCGGUC [Fam1B.1 aminoacylation ribozyme variant] | 1.27 | 1 | 0.827 | 1.41 | 0.983 | 1.11 |
| CCACGCUACAAGCAAUCGGUC [Fam1B.1 aminoacylation ribozyme variant] | 1.3 | 0.937 | 0.858 | 0.999 | 0.851 | 1.2 |
| CCACGCUCCAAGCAAUCGGUC [Fam1B.1 aminoacylation ribozyme variant] | 12.6 | 1.13 | 1.07 | 1.47 | 1.11 | 9.91 |
| CCACGCUUAAAGCAAUCGGUC [Fam1B.1 aminoacylation ribozyme variant] | 0.884 | 0.96 | 0.741 | 1.02 | 0.752 | 0.646 |
| CCACGCUUCAAGAAAUCGGUC [Fam1B.1 aminoacylation ribozyme variant] | 10.3 | 0.895 | 0.772 | 0.945 | 1.19 | 8.12 |
| CCACGCUUCAAGCAAUCCGUC [Fam1B.1 aminoacylation ribozyme variant] | 1.34 | 0.754 | 0.507 | 1.1 | 0.648 | 1.07 |
| CCACGCUUCAAGCAAUCGGUU [Fam1B.1 aminoacylation ribozyme variant] | 20 | 1.33 | 1.44 | 1.93 | 1.92 | 16.7 |
| CCACGCUUCAAGCAGUCGGUC [Fam1B.1 aminoacylation ribozyme variant] | 1 | 0.755 | 1.03 | 1.33 | 0.887 | 0.91 |
| CCACGCUUCAAGCGAUCGGUC [Fam1B.1 aminoacylation ribozyme variant] | 2.6 | 0.888 | 1.14 | 1.2 | 1.05 | 3.3 |
| CCACGCUUCAGGCAAUCGGUC [Fam1B.1 aminoacylation ribozyme variant] | 1.41 | 1.22 | 1.35 | 1.77 | 1.39 | 1.35 |
| CCACGCUUUAAGCAAUCGGUC [Fam1B.1 aminoacylation ribozyme variant] | 1.27 | 0.737 | 0.713 | 0.787 | 0.682 | 0.998 |
| CCACUCCAAACAAUCGGUCUG [Fam1A.1 aminoacylation ribozyme variant] | 4.18 | 1.11 | 1.13 | 1.22 | 1.09 | 3.48 |
| CCACUCGUCAAGCAAUCGGUC [Fam1B.1 aminoacylation ribozyme variant] | 0.586 | 1.15 | 1.18 | 1.58 | 1.35 | 0.864 |
| CCACUCUGCAAGCAAUCGGUC [Fam1B.1 aminoacylation ribozyme variant] | 1.11 | 1.24 | 1.06 | 1.41 | 1 | 1.09 |
| CCACUCUUCAAACAAUCGGUC [Fam1B.1 aminoacylation ribozyme variant] | 78.3 | 1.23 | 1.44 | 1.3 | 2.04 | 41.8 |
| CCACUCUUCAAGAAAUCGGUC [Fam1B.1 aminoacylation ribozyme variant] | 5.4 | 0.932 | 0.91 | 0.871 | 0.903 | 4.87 |
| CCACUCUUCAAGCAAUAGGUC [Fam1B.1 aminoacylation ribozyme variant] | 0.921 | 0.784 | 0.558 | 0.668 | 0.669 | 0.484 |
| CCACUCUUCAAGCAAUCGGUU [Fam1B.1 aminoacylation ribozyme variant] | 2.51 | 1.53 | 1.53 | 1.6 | 1.16 | 2.27 |
| CCACUUAAAACAAUCGGUCUG [Fam1A.1 aminoacylation ribozyme variant] | 0.816 | 1.11 | 1.44 | 1.13 | 1.05 | 1.12 |
| CCACUUCAAACAAUCGGACUG [Fam1A.1 aminoacylation ribozyme variant] | 22.6 | 0.9 | 1.03 | 1.1 | 1.26 | 14.9 |
| CCACUUCAAACAAUCGUUCUG [Fam1A.1 aminoacylation ribozyme variant] | 2.21 | 0.582 | 0.479 | 0.674 | 0.653 | 1.09 |
| CCACUUCAAAGAAUCGGUCUG [Fam1A.1 aminoacylation ribozyme variant] | 11.4 | 1.15 | 1.04 | 1.13 | 1.32 | 8.92 |
